In the assay the target is recombinant stabilized HA trimer of H1N1 virus A/Solomon Islands/3/2006 (H1 SI06) (influenza A virus A/Solomon Islands/3/2006 (H1N1)). As to the kind of experiment: cryo-EM structure.

A word on the stoichiometry N: it is a count of units in the complex or per binding partner.

For “recombinant stabilized HA trimer of H1N1 virus A/Solomon Islands/3/2006 (H1 SI06) (natural protein)”, the stoichiometry N came to 3.

For the origin of these results see paper PMC9772109.
